According to article PMC10952193, “Structure and Function of the α‐Hydroxylation Bimodule of the Mupirocin Polyketide Synthase” (Angewandte Chemie (Weinheim an Der Bergstrasse, Germany), 2023):

B1: MupA (enzyme, Pseudomonas fluorescens, UniProt Q9AH80 1-369, looked up)
chain: MSVEQLLGLGVTNAARAPRQPAFSLLFFSDVREDISASEKYEFARSLTLFGDAQGFEAVYFPERHFHEFGAIYPDSAVMAASLIPQTRHIRFRTAGISLPLHHPARVVESWSMNDVLSGGRVDLGFGSGWSRPDFLLAPHAYEDRREVMWQRIEQVRRLWAGERLSFPGPGGDPVSVVTFPRPLQTSLNVWILVAQNTESFIAAGKAGFNVFTMLYGIDLPDLAEKIGLYRQARRDAGFDPASGRVTLMLHTLVGPDSAWVRRAVEAPFKDYIRSSLVAHMKARATPDGRPLDATEQENVLQYAFERYYETGALFGTVDEVRYRVGQVLETGVDEIACLMDFGVDYAVVHQSLPYLEQLVASFQERSAQ
notes: MupA, trans-acting flavin-dependent monooxygenase of the mupirocin biosynthetic gene cluster of Pseudomonas fluorescens; Dimeric by SEC; a dimer of dimers above 2 mg/ml; Used unlabelled in the NMR experiments; also called flavin-dependent monooxygenase (FMO); FMNH2-dependent oxygenase
B2: Fre (enzyme, E. coli, UniProt P0AEN1 1-233, looked up)
chain: MTTLSCKVTSVEAITDTVYRVRIVPDAAFSFRAGQYLMVVMDERDKRPFSMASTPDEKGFIELHIGASEINLYAKAVMDRILKDHQIVVDIPHGEAWLRDDEERPMILIAGGTGFSYARSILLTALARNPNRDITIYWGGREEQHLYDLCELEALSLKHPGLQVVPVVEQPEAGWRGRTGTVLTAVLQDHGTLAEHDIYIAGRFEMAKIARDLFCSERNAREDRLFGDAFAFI
notes: Fre, NAD(P)H:flavin oxidoreductase of E. coli, GenBank M61182; also called oxidoreductase Fre; E. coli Fre; source: E. coli, recombinant, overexpressed, purified

How the values were obtained:
[1] = target: the molecule itself; assay: SEC; size exclusion chromatography of purified MupA (lower concentrations)
[2] = target: the molecule itself; assay: SEC; size exclusion chromatography of purified MupA at higher concentrations (>2 mg/ml)
[3] = target: the molecule itself; assay: not stated; purification of recombinant Fre (Figure S6); how the dimer was shown is not told in the main text

| Protein | stoichiometry N [1] | stoichiometry N [2] | stoichiometry N [3] |
| --- | --- | --- | --- |
| B1 | 2 | 4 | – |
| B2 | – | – | 2 |
